Protein production data for 18 sequences are collected here from a protein production outcome set (Wang et al. 2014).

The nature of the data set: label from the status in PepcDB records.
On to “MRQDAEVIMKLTDADNAADGIFFPALEQNMMGAVLINENDEVMFFNPAAEKLWGYKREEVIGNNIDMLIPRDLRPAHPEYIRHNREGGKARVEGMSRELQLEKKDGSKIWTRFALSKVSAEGKVYYLALVRDASVEMAQKEQTRQLIIAVDHLDRPVIVLDPERHIVQCNRAFTEMFGYCISEASGMQPDTLLNIPEFPADNRIRLQQLLWKTARDQDEFLLLTRTGEKIWIKASISPVYDVLAHLQNLVMTFSDITEERQIRQLEGNILAAMCSSPPFHEMGEIICRNIESVLNESHVSLFALRNGMPIHWASSSHGAEIQNAQSWSATIRQRDGAPAGILQIKTSSGAETSAFIERVADISQHMAALALEQEKSRQHIEQLIQFDPMTGLPNRNNLHNYLDDLVDKAVSPVVYLIGVDHIQDVIDSLGYAWADQALLEVVNRFREKLKPDQYLCRIEGTQFVLVSLENDVSNITQIADELRNVVSKPIMIDDKPFPLTLSIGISYDLGKNRDYLLSTAHNAMDYIRKNGGNGWQFFSPAMNEMVKERLVLGAALKEAISNNQLKLVYQPQIFAETGELYGIEALARWHDPLHGHVPPSRFIPLAEEIGEIENIGRWVIAEACRQLAEWRSQNIHIPALSVNLSALHFRSNQLPNQVSDAMHAWGIDGHQLTVEITESMMMEHDTEIFKRIQILRDMGVGLSVDDFGTGFSGLSRLVSLPVTEIKIDKSFVDRCLTEKRILALLEAITSIGQSLNLTVVAEGVETKEQFEMLRKIHCRVIQGYFFSRPLPAEEIPGWMSSVLPLKI”, for which the protein production entry was “failed”.
On to “KERILSSERLAKIMMSELGDKRQEHLIAIYLDTQNRVIKKQVIFIGSVRRSVAEPREILHYACKSMATSLIIVHNHPSGSTYPSENDLRFTEKIKRSCDDLGIVFLDHIIVGKKEYYSFREETDLV”, for which the protein production entry is “not failed”.
Regarding “MPVPPEFPLSVFYDGSCSVCATEMEAYMRKEHGGRLLFVDISAPSFDPTPYGITLDAFMYQMHAIDRTGRVYLSVEAFWAIWQAFPASTLYGFLGALVMLPGVNLLARAGYRGFARIRKYLPRRRETCAGGSCRIGQREE”, the protein production entry is “failed”.
Consider “MLGSQCAASEPVPAHSLWRGQDMSPNMRGALLMTGSMAAFTCNDTVVKLLGSEMPLFQILVLRSGLSAVWIYFLARRLGALHLRFGRRDRMLVALRCLSEIGATYFFLTALLNMPLANVTAVLQMLPLTVTLGAALFFGEQVGWRRMLAIGLGFCGMLLIVRPGPDGFTLHAIYAMAAVICVTARDLVTRRMSSHVPSLTVTLATALSVMSFGLVGSLTVDWVPLTTDLGLGLLAASLLVLGGYLFSVMVMRIGEVGFVAPFRYSSLLWALVLGWLVFGDWPDPLTMAGVALVVATGLFTLFRERASRHRG”, for which the protein production result is given as “failed”.
In the case of “MHPKTQQILEVFEEINKIPRRSKHEEQISTWLQEWGRSRGFEVKADSLNNVLIKVPATTGYEDSPTLILQGHMDMVCEKCKDSIHDFSRDPIRCICDGDWMRGDGTSIGADDGIALALGLVMAEAGKKGEIGHPPLELLFTVDEETGLTGARGLETGFFEGKILLNLDSEDEGIFVIGCAGGQNSQITLPVEWELLDFKEENLFRFFRLSVEGLEGGHSGTEINKQRANGIQLLSLALVKLRGKLGIENVRLVLLNGGTVHNAIPSTAEAFIALHGEKLEKAAETMSDIRHAFKAEYAKTDPGLILNFEEISREIIFEVAEDKIPREEVSHVRVFSLETEEKLLELILGLPHGVYRMSETIHGLVETSNNLATVRTAGNEVIIVSSQRSSNNLRLAEISGKVEAISKLAGAWVEHEPGYPAWEPNLKSELILKCKQVYTETFGKEPEIEVIHAGLECGIIGSAHEGMEMISFGPTIKDAHSPAEKIFVPSIEKVWIFLENLFKTYC” it was “failed”; in that of “MKKSLVVCALSAAVLLSGCETVNTTSGGVVGVDRKQSMFSMVSSAEVNQSYAQSYQQTLGEASSQGVLDKTSANAKRLQVIANRLIAQAPTFRPDCAQWKWEVNLIKSDELNANCGPGGKIIFYSGLIEKLKLTDDEIAAVMGHEIAHALREHGREAMSKQYAVGAGKQIATLFGVPQETVALGDNGVNLLMTLPNSRENENEADLIGLELAARAGYNPNAAISLWNKMGQAAGGSAPPEFMSTHPASTSRIASLQAAIPKVMPLYQAAKKSLEHHHHHH”, “failed”; in that of “MDTKHFLPLDFSTQVNSSLTSPTGRGSMAAPSLHPSLGPGIGSPGQLHSPISTLSSPINGMGPPFSVISSPMGPHSMSVPTTPTLGFSTGSPQLSSPMNPVSSSEDIKPPLGLNGVLKVPAHPSGNMASFTKHICAICGDRSSGKHYGVYSCEGCKGFFKRTVRKDLTYTCRDNKDCLIDKRQRNRCQYCRYQKCLAMGMKREAVQEERQRGKDRNENEVESTSSANEDMPVERILEAELAVEPKTETYVEANMGLNPSSPNDPVTNICQAADKQLFTLVEWAKRIPHFSELPLDDQVILLRAGWNELLIASFSHRSIAVKDGILLATGLHVHRNSAHSAGVGAIFDRVLTELVSKMRDMQMDKTELGCLRAIVLFNPDSKGLSNPAEVEALREKVYASLEAYCKHKYPEQPGRFAKLLLRLPALRSIGLKCLEHLFFFKLIGDTPIDTFLMEMLEAPHQMT”, “failed”.
In the case of “MGLIDRYLAREILLPFAAALLFLTQILLATQILGQADVLFGSGVSLVDVGLVMLSLMPHLLGYVIPVAFLLGVVLGVGRLAEDREVVALGAAGLSPVRLVRVPLLLGLVVAALGAWLSLSVEPASIRAARLRLNDVVKRNVTNDVRGGTFYDQIPGYTIYTERARGGRWENVLIQDRSNPDAPMLALSRRGRLEPVGAGQDMRLVLEQGEVHREEVGTADYASAAFGKAELLVGLGTALSDRNVLAKSSREATVSDLRARAAAAREKGDVVEERRQEGYLHRKLSAPLVVVAFALLGVPLGAERRGGRAFGMGATFLLVVVHYLLLRGGEVLTQLGHLPAAFALQLPNLVLGAAGVALVLLMARRGPEAVR” it was “failed”; in that of “MDFFFVEYRDPLVGLIILTILVFVVAVANYIWKIFANKDEEQKLEKFIKKFEMDNAHKELLRNSSLSFGNLSFLAEIFTKSGEFEKATQIYLIALEKCKDKQEREFIFLSLAKVYFKAGFLERAKEVLLQALKLRPRNIQALKLLKIVYLKLRSYKENLELLECLFELNEDVQKERDFIKALELCTFNITDEEKKKKLLEFKIEDNPMLGRLVFEKYHMFLGQNFFDICDLLYRENEAFNLENQDFLEFFYALGKISKHDDTHQFVFKNSNFKMLKILKDNSFNAGLEFSYRCSECKNVMPLFFYHCPVCYEFNTCKIIYEVKNNETH”, “failed”; in that of “MPAASQDNDGGPSQSGGPMADPAPLIDTDPARIGEYTLLGRLGQGGQGVVYLGSAPDGARVAVKTLHRDALDLPGLREQLAEEVEMARRVARFCTAQVLAADLDADPPYVVSEYVEGPSLQAVVRERGPLRGASLERLAVGTLTALAAIHQAGIVHRDFKPANVLMAPGGPRVIDFGIARALEGTAILTSRIAGTPAYMAPEQITGGPLGPAVDMFAWGATLVYAANGRGPFGHGSLKAVVQRVINDEPDFGELSGTLREIAERCLNKDAAQRPTAAETLMLVLGIEGPPPTEEPSTDTAIPVTHQTLVAGAIAAADTGEQESAAELYRSYPPAPPPPHSNVAAQPSPTPPPHPQTASGPQPSLPSTGAQHSGYGYATGPHQSGYGYATGPQQGGYAPPPGPHQHAYPTPHSGNAAIPPHGGPSGPYAPAQPWMPSTGGYPQTSQPYSGQQYQQQAEGTSTAFVLGVVSIAVIAGVLLFILLFLLIGSLG”, “failed”.
In the case of “MGHHHHHHSHMACYIYQLPSWVLDDLCRNMDALSEWDWMEFASYVITDLTQLRKIKSMERVQGVSITRELLWWWGMRQATVQQLVDLLCRLELYRAAQIILNWKPAPEIRCPIPAFPDSVK” it was “failed”.
Turning to “MAVFVALGAFLMTLAGGWTAQRVTDRRHLVLGLAGGLMLGVVGMDLLPEALDAAGGKVFGVPAALLLFVAGFLLAHLVERLLAHRQAAHGGAESNGRAPEVGLTAAAAMVGHSAMDGVAIGAAFQVGGGMGLAVAVAVIAHDFADGFNTYTLTALYGNARRKAVIMLVADAVAPVLGAASTLAFTIPERLLGGYLALFGGALLYLAAAEILPEAHHEHPARSTLLCTVAGVGFIWLVVGLAG”, the protein production entry was “failed”.
In the case of “MSGPRAGFYRQELNKTVWEVPQRLQGLRPVGSGAYGSVCSAYDARLRQKVAVKKLSRPFQSLIHARRTYRELRLLKHLKHENVIGLLDVFTPATSIEDFSEVYLVTTLMGADLNNIVKCQAGAHQGARLALDEHVQFLVYQLLRGLKYIHSAGIIHRDLKPSNVAVNEDCELRILDFGLARQADEEMTGYVATRWYRAPEIMLNWMHYNQTVDIWSVGCIMAELLQGKALFPGSDYIDQLKRIMEVVGTPSPEVLAKISSEHARTYIQSLPPMPQKDLSSIFRGANPLAIDLLGRMLVLDSDQRVSAAEALAHAYFSQYHDPEDEPEAEPYDESVEAKERTLEEWKELTYQEVLSFKPPEPPKPPGSLEIEQ” it was “failed”; in that of “MEDGMNTFDLYYWPVPFRGQLIRGILAHCGCSWDEHDVDAIEGLMDCGAEKQPVAFMGPPVLIDRERNFAISQMPAIAIYLGERLDILPATVEGRTLSAKIVNDANDVLDELTLNGGREMWTPEKWQEFVPRLQKWIRIFADTGARNGLSAASGFMLGTEKIGVADIVTAILWTTVADRFPAIKGIIEDTSPIIWGLSRRVVATAPLAALNSKSFEEYGNAYCGGEIEKSLRKVAS”, “not failed”.
Consider “MEPANMTVAEYLNYWLDTYPKNNVAPSTYRRYTEFAAHIKTHIGGIMMPKLKPAHIQSFYSSLLEKNLSKSTVLKIHRMLHLALKHAVNWQIIISNPTDAVTLEHHHHHH”, for which the protein production entry is “failed”.
For “SASFVTSKRDFRARAHSNPLNDAEFLVPEDPLRFDWSPFIPDVGSHPIDYVDLGCGYGGLLCELSIAFPNKYMLGMEIRDRVASYCVTKLEELRRLNSKGYRNIGFIRTNCMKFLPFYFPPSSVEKFFICFPDPHFKKKKHRQRLVSLRFLSEAAYCLRPGGMIYIVTDVEELFAWMTNLFAQHPLFLTMDKELVKQQDVLLPYLLNHTDEAQRMKRRGQDTPYWNVFQRKTVFC”, the protein production entry is listed as “failed”.
As for “MGRNQGAYLDPSESILMLMVAFLLVLLNAFFVLSEFALVKVRKTRLEELVKIGNSNAKLALKMSQRLDTYLSATQLGITLSSLALGWVGEPAIAKLLAALFESMDLRENPIFIHSMSVVIAFLSITFLHVVLGEIVPKSLAIAKSEKATLFAARPLHVFWVVFYPVVRLFDVIAHFFLKKMGINPKEHDGTHSEEELKIIVGESLREGIIDSVEGEIIKNAXDFSDTSAKEIMTPRKDMVCLDEENSYEENIDIVLKGHFTRYPYCKGSKDNIIGMVHIRDLLSRSIFTPKMHDFNQIVRKMIIVPESASISQILIKMKKEQIHTALVIDEYGGTAGLLTMEDIIEEIMGEISDEYDLKQEGINKLEEGVFELEGMLDLESVEEALHIEFDKECEQVTLGGYVFSLLERMPMEGDTIVSHGYSFEVLSVDGARIKRLKAVKQDQGENEA”, the protein production entry is on record as “failed”.
In the case of “MNAATLVDTHAVDTALQEAFEAAPEGFALFDAEDRCVIWNARYGELWSKWGVTLAVGATFESLLLAGLAAGRFPEANGDRAAWLAHQLGRRKLDRIEEIREEFGEYLRFESRRTPAGGLITTCANLTNLRRREAQALAARSFLDTIVENTPAMLFVKDGDTGAFLLVNRAAENQLGVPRAELLGKSDYDFFPKEQADAFAADDRRVIASGKLVTIDEEPLDTPHNGRRWLQTRKIAIPGEDGRRHLLVICEDITERKAGAAALAEALQKAEAGSVAKSEFLANMSHEIRTPLNGVIGMAEVLSRTALDDAQREMMEVILNSGRALNLLLSDILDLSKIEAGGLELSRDPLDLREAITAAVAVFKAVAESKGLVFRLTFADDFHDHVLGDALRVRQIVANLTSNAVKFTTAGSVIIEARTLVAEDGRIDLTVSVQDTGEGFDEDSADRLFERFQQADGSVTRKVGGTGLGLPIARRLARLMDGEISCVAHPGEGATFVFEALFLADGQRTPALEHHHHHH” it was “failed”.
